Source: patent publication US11278600B2, “Human alpha-galactosidase variants” (Codexis, Inc., priority 2014, dated 2022)

Tests used:
Type in all cases: biochemical
[1] = HTP-analysis of yeast culture supernatants, no challenge (MUGal hydrolysis); conditions: activity of the variant/activity of Rd2BB (SEQ ID NO: 10), yeast culture supernatant
In short: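 GLA variants expressed in yeast INVSc1, secreted into SD-Ura broth over 66-84 h at 30° C; clarified supernatants tested without challenge. Supernatant mixed with McIlvaine buffer pH 4.8 and 2 mM MUGal (citrate/KCl, pH 4.6), 37° C for 30-180 min, carbonate-quenched, fluorescence Ex 355/Em 448 nm.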

[2] = HTP-analysis of supernatants pretreated with bovine serum (MUGal hydrolysis); conditions: activity of the variant/activity of Rd2BB (SEQ ID NO: 10), yeast culture supernatant
In short: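 Yeast INVSc1 culture supernatants containing secreted GLA variants were mixed with bovine serum (20:80) and held 1 h at 37° C. Serum-treated samples then reacted with MUGal (4 mM stock) in citrate/McIlvaine buffer (pH 4.3/4.8) for 180 min at 37° C., were quenched with sodium carbonate, and read by fluorescence (Ex 355, Em 448 nm).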

[3] = HTP-analysis of supernatants pretreated with acid (MUGal hydrolysis); conditions: challenge at pH 4.2; activity of the variant/activity of Rd2BB (SEQ ID NO: 10); yeast culture supernatant
In short: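 GLA variants were secreted from INVSc1 yeast grown 66-84 h at 30° C. in SD-Ura with 2% glucose; supernatants were mixed with McIlvaine buffer pH 3.3-4.3 and held at 37° C. for 1-3 h. Residual activity on MUGal at pH 4.8 was then measured by fluorescence.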

[4] = HTP-analysis of supernatants pretreated with base (MUGal hydrolysis); conditions: challenge at pH 7.6; activity of the variant/activity of Rd2BB (SEQ ID NO: 10); yeast culture supernatant
In short: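 Fluorescence of released 4-MU (Ex 355 nm, Em 448 nm) after carbonate quench reports MUGal hydrolysis by GLA variants secreted from INVSc1 yeast. Before the acidic (pH 4.3-4.8) 30-180 min reaction at 37° C, supernatants had been pre-incubated at pH 7.0-9.7 for 1-18 h at 37° C.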

Molecule	Relative Activity of GLA Variants After No Challenge (NC) [1]	Relative Activity of GLA Variants After Challenge with Serum [2]	Relative Activity of GLA Variants After Challenge at pH 4.2 [3]	Relative Activity of GLA Variants After Challenge at pH 7.6 [4]
270 (protein, Synthetic Polypeptide sequence of Variant No. 270 of mature Human GLA) LDNGLARTPTMGWLHWERFMCNLDCQEEPDSCISEKLFMEMAERMVSEGWKDAGYEYLCIDDCWMAPQRDSEGRLQADPQRFPHGIRQLANYVHSKGLKLGIYADVGNKTCAGFPGSFGYYDIDAQTFADWGVDLLKFDGCYYDSLENLADGYKHMSLALNRTGRSIVYSCEWPLYMWPFQKPNYTEIRQYCNHWRNFADIDDSWASIKSILDWTSFNQERIVDVAGPGGWNDPDMLVIGNFGLSWNQQVTQMALWAIMAAPLFMSNDLRHISPQAKALLQDKDVIAINQDPLGKQGYQLRQGDNFEVWERPLSGLAWAVAMINRQEIGGPRSYTIPVASLGKGVACNPGCFITQLLPVKRKLGFYEWTSRLRSHINPTGTVLLQLENTMQMSLKDLL	+ (+ = 0.5 to 1.5 relative activity over Rd2BB (SEQ ID NO: 10))	+ (+ = 0.5 to 1.5 relative activity over Rd2BB (SEQ ID NO: 10))	+ (+ = 0.5 to 1.5 relative activity over Rd2BB (SEQ ID NO: 10))	+ (+ = 0.5 to 1.5 relative activity over Rd2BB (SEQ ID NO: 10))
264 (protein, Synthetic Polypeptide sequence of Variant No. 264 of mature Human GLA) LDNGLARTPTMGWLHWERFMCNLDCQEEPDSCISEKLFMEMAELMVSEGWKDAGYEYLCIDDCWMAPQRDSEGRLQADPQRFPHGIRQLANYVHSKGLKFGIYADVGNKTCAGFPGSFGYYDIDAQTFADWGVDLLKFDGCYCDSLENLADGYKHMSLALNRTGRSIVYSCEWPLYMWPFQKPNYTEIRQYCNHWRNFADIDDSWASIKSILDWTSFNQEKIVDVAGPGGWNDPDMLVIGNFGLSWDQQVTQMALWAIMAAPLFMSNDLRHISPQAKALLQDKDVIAINQDPLGKQGYQLRKGDNFEVWERPLSGLAWAVAVINRQEIGGPRSYTIAVASLGDGVACNPACFITQLLPVKRKLGFYEWTSRLKSHVNPTGTVLLQLENTMQMSLKDLL	++ (++ = 1.5 to 2.5 relative activity over Rd2BB (SEQ ID NO: 10))	++ (++ = 1.5 to 2.5 relative activity over Rd2BB (SEQ ID NO: 10))	++ (++ = 1.5 to 2.5 relative activity over Rd2BB (SEQ ID NO: 10))	+++ (+++ = >2.5 relative activity over Rd2BB (SEQ ID NO: 10))
266 (protein, Synthetic Polypeptide sequence of Variant No. 266 of mature Human GLA) LDNGLARTPTMGWLHWERFMCNLDCQEEPDSCISEKLFMEMAELMVSEGWKDAGYEYLCIDDCWMAPQRDSEGRLQADPQRFPHGIRQLANYVHSKGLKFGIYADVGNKTCAGFPGSFGYYDIDAQTFADWGVDLLKFDGCYCDSLENLADGYKHMSLALNRTGRSIVYSCEWPLYMWPFQKPNYTEIRQYCNHWRNFADIDDSWASIKSILDWTSFNQETIVDVAGPGGWNDPDMLVIGNFGLSWNQQVTQMALWAIMAAPLFMSNDLRHISPQAKALLQDKDVIAINQDPLGKQGYQLRQGDNFEVWERPLSGLAWAVAIINRQEIGGPRSYTIAVASLGEGVACNPACFITQLLPVKRKLGLYEWTSRLKSHINPTGTVLLQLENTMQMSLKDLL	++ (++ = 1.5 to 2.5 relative activity over Rd2BB (SEQ ID NO: 10))	++ (++ = 1.5 to 2.5 relative activity over Rd2BB (SEQ ID NO: 10))	++ (++ = 1.5 to 2.5 relative activity over Rd2BB (SEQ ID NO: 10))	+++ (+++ = >2.5 relative activity over Rd2BB (SEQ ID NO: 10))
265 (protein, Synthetic Polypeptide sequence of Variant No. 265 of mature Human GLA) LDNGLARTPTMGWLHWERFMCNLDCQEEPDSCISEKLFMEMAELMVSEGWKDAGYEYLCIDDCWMAPQRDSEGRLQADPQRFPHGIRQLANYVHSKGLKFGIYADVGNKTCAGFPGSFGYYDIDAQTFADWGVDLLKFDGCYCDSLENLADGYKHMSLALNRTGRSIVYSCEWPLYMWPFQKPNYTEIRQYCNHWRNFADIDDSWASIKSILDWTSFNQEKIVDVAGPGGWNDPDMLVIGNFGLSWNQQVTQMALWAIMAAPLFMSNDLRHISPQAKALLQDKDVIAINQDPLGKQGYQLRQGDNFEVWERPLSGLAWAVAMINRQEIGGPRSYTIAVASLGKGVACNPACFITQLLPVKRKLGFYEWTSRLKSHVNPTGTVLLQLENTMQMSLKDLL	+ (+ = 0.5 to 1.5 relative activity over Rd2BB (SEQ ID NO: 10))	+ (+ = 0.5 to 1.5 relative activity over Rd2BB (SEQ ID NO: 10))	+ (+ = 0.5 to 1.5 relative activity over Rd2BB (SEQ ID NO: 10))	+ (+ = 0.5 to 1.5 relative activity over Rd2BB (SEQ ID NO: 10))
269 (protein, Synthetic Polypeptide sequence of Variant No. 269 of mature Human GLA) LDNGLARTPTMGWLHWERFMCNLDCQEEPDSCISEKIFMEMAELMVSEGWKDAGYEYLCIDDCWMAPQRDSEGRLQADPQRFPHGIRQLANYVHSKGLKLGIYADVGNKTCAGFPGSFGYYDIDAQTFADWGVDLLKFDGCYCDSLENLADGYKHMSLALNRTGRSIVYSCEWPLYMWPFQKPNYTEIRQYCNHWRNFADIDDSWASIKSILDWTSFNQEKIVDVAGPGGWNDPDMLVIGNFGLSWDQQVTQMALWAIMAAPLFMSNDLRHISPQAKALLQDKDVIAINQDPLGKQGYQLRQGDNFEVWERPLSGLAWAVAIINRQEIGGPRSYTIAVASLGKGVACNPACFITQLLPVKRKLGFYEWTSRLKSHINPTGTVLLQLENTMQMSLKDLL	− (− = <0.5 relative activity over Rd2BB (SEQ ID NO: 10))	+ (+ = 0.5 to 1.5 relative activity over Rd2BB (SEQ ID NO: 10))	+ (+ = 0.5 to 1.5 relative activity over Rd2BB (SEQ ID NO: 10))	+ (+ = 0.5 to 1.5 relative activity over Rd2BB (SEQ ID NO: 10))
267 (protein, Synthetic Polypeptide sequence of Variant No. 267 of mature Human GLA) LDNGLARTPTMGWLHWERFMCNLDCQEEPDSCISEKLFMEMAELMVSEGWKDAGYEYLCIDDCWMAPQRDSEGRLQADPQRFPHGIRQLANYVHSKGLKFGIYADVGNKTCAGFPGSFGYYDIDAQTFADWGVDLLKFDGCYCDSLENLADGYKHMSLALNRTGRSIVYSCEWPLYMWPFQKPNYTEIRQYCNHWRNFADIDDSWASIKSILDWTSFNQETIVDVAGPGGWNDPDMLVIGNFGLSWDQQVTQMALWAIMAAPLFMSNDLRHISPQAKALLQDKDVIAINQDPLGKQGYQLRKGDNFEVWERPLSGLAWAVAMINRQEIGGPRSYTIAVASLGDGVACNPACFITQLLPVKRKLGLYEWTSRLKSHINPTGTVLLQLENTMQMSLKDLL	+++ (+++ = >2.5 relative activity over Rd2BB (SEQ ID NO: 10))	+++ (+++ = >2.5 relative activity over Rd2BB (SEQ ID NO: 10))	+++ (+++ = >2.5 relative activity over Rd2BB (SEQ ID NO: 10))	+++ (+++ = >2.5 relative activity over Rd2BB (SEQ ID NO: 10))
268 (protein, Synthetic Polypeptide sequence of Variant No. 268 of mature Human GLA) LDNGLARTPTMGWLHWERFMCNLDCQEEPDSCISEKLFMEMAELMVSEGWKDAGYEYLCIDDCWMAPQRDSEGRLQADPQRFPHGIRQLANYVHSKGLKFGIYADVGNKTCAGFPGSFGYYDIDAQTFADWGVDLLKFDGCYCDSLENLADGYKHMSLALNRTGRSIVYSCEWPLYMWPFQKPNYTEIRQYCNHWRNFADIDDSWASIKSILDWTSFNQERIVDVAGPGGWNDPDMLVIGNFGLSWNQQVTQMALWAIMAAPLFMSNDLRHISPQAKALLQDKDVIAINQDPLGKQGYQLRQGDNFEVWERPLSGLAWAVAMINRQEIGGPRSYTIAVASLGKGVACNPACFITQLLPVKRKLGFYEWTSRLKSHVNPTGTVLLQLENTMQMSLKDLL	+ (+ = 0.5 to 1.5 relative activity over Rd2BB (SEQ ID NO: 10))	+ (+ = 0.5 to 1.5 relative activity over Rd2BB (SEQ ID NO: 10))	+ (+ = 0.5 to 1.5 relative activity over Rd2BB (SEQ ID NO: 10))	+ (+ = 0.5 to 1.5 relative activity over Rd2BB (SEQ ID NO: 10))
